Test results as given in patent US20190218308A1 (INNATE PHARMA, published 2019).

Assays:
[1] = target: T1, cynomolgus (macaca fascicularis) CD39 on CHO cells (cynomolgus (macaca fascicularis), UniProt A0A7N9DGH8 1-510); experiment: flow cytometry titration on CHO cells expressing cynomolgus CD39 (panel CHO-cyCD39)
T1 construct: whole, on cells; also called CHO-cyCD39; cynomolgus CD39
T1 sequence: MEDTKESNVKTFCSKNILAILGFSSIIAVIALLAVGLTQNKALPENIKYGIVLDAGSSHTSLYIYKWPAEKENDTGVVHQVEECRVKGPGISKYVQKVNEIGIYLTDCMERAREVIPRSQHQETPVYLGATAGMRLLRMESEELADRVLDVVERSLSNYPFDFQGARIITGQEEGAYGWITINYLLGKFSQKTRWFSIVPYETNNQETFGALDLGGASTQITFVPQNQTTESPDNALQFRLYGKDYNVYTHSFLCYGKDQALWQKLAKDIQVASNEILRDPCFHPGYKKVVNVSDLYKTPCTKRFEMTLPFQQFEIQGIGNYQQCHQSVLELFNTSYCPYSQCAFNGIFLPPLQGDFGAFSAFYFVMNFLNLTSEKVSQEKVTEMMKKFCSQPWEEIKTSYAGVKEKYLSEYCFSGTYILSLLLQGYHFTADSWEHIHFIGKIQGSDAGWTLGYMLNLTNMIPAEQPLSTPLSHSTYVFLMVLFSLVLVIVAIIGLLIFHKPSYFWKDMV
Protocol: Cells were incubated with various concentration of unlabeled anti-CD39 antibody from 30 μg/ml to 5×10⁻⁴ μg/ml, for 30 minutes at 4° C. After washes, cells were incubated with Goat anti-mouse H+L labeled secondary antibody for 30 min at 4° C.

[2] = target: T2, Human CD39-L4, also known as NTPDase5 or ENTPD5 (human, UniProt O75356 25-428); experiment: ELISA on coated recombinant human CD39-L4 (panel huCD39 L4)
T2 construct: Recombinant protein coated in ELISA
T2 sequence: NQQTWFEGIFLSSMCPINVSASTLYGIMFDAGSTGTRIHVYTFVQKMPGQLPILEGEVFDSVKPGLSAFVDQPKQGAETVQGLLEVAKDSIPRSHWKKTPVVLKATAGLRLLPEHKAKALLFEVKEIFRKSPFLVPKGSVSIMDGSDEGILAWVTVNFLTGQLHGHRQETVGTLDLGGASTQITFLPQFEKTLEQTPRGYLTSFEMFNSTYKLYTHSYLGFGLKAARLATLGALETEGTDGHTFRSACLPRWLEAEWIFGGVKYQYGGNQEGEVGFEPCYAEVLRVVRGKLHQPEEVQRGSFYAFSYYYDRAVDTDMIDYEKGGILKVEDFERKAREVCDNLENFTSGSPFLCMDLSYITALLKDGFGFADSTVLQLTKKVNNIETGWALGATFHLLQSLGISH
Protocol: (§1) Wells were washed in TBS Tween 20, and further saturated 2H at RT in TBS Blocking buffer. Dose range concentration of primary antibody was incubated in TBS blocking buffer for 2 h at RT. Wells were washed in TBS Tween 20. […] Optical density was measured on Enspire™ at OD=450.

CD39 mutant 19 = target: T3, CD39 mutant 19 (human, UniProt P49961 1-510); experiment: flow cytometry, Hek-293T cells transfected with CD39 mutant 19 (panel M19); antibody concentration not shown
T3 construct: Expressed on Hek-293T cells; also called M19
T3 chain: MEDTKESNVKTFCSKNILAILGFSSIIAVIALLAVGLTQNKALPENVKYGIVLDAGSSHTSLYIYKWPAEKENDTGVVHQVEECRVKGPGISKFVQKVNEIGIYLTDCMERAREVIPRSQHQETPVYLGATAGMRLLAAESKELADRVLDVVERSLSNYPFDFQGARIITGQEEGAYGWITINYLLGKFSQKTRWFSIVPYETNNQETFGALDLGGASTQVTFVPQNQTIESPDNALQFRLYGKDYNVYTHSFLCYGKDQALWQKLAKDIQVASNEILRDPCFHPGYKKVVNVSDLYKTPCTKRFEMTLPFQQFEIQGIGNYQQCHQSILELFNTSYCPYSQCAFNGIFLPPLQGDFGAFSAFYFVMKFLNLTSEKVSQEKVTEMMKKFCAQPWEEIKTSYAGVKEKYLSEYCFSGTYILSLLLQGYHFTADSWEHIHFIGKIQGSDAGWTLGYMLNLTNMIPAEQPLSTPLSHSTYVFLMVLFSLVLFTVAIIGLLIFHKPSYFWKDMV
Protocol: Mutants were transfected in Hek-293T cells, as shown in the table 1, using numbering of SEQ ID NO: 2. […] Mutant 19 includes substitutions at residues R138, M139 and E142.
Mutants were transfected in Hek-293T cells, as shown in the table 1, using numbering of SEQ ID NO: 2. Dose-ranges of test antibodies (10-2.5-0.625-0.1563-0.0391-0.0098-0.0024-0.0006 μg/ml) are tested on the 20 generated mutants by flow cytometry.

[3] = target: T4, Human CD39-L3, also known as NTPDase3 or ENTPD3 (human, UniProt O75355 44-485, limits assumed); experiment: ELISA on coated recombinant human CD39-L3 (panel huCD39 L3)
T4 construct: Recombinant protein coated in ELISA
T4 sequence: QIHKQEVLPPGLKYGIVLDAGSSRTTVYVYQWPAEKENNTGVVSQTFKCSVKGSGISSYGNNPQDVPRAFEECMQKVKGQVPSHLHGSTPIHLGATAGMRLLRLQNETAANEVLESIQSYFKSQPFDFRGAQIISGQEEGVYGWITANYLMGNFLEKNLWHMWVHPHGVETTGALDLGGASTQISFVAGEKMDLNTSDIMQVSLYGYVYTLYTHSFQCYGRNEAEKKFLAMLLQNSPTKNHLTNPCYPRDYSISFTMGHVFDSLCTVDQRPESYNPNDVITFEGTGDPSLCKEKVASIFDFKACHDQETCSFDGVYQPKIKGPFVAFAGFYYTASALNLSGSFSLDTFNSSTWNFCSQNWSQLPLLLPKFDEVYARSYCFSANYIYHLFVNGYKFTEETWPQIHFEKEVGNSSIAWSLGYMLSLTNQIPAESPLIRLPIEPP
Protocol: as §1

EC50 (read off the curve) [1]: ~0.4 µg/mL
binding result [2]: no binding (tested: about 50 µg/ml)
binding result (CD39 mutant 19): no binding
binding result [3]: no binding (tested: about 50 µg/ml)
B1: antibody I-394 (antibody, human IgG1, kappa, V domains shown)
VH: EVQLQQSGPELVKPGASVKMSCKASGYTFTDYNMHWVKQSHGRTLEWIGYIVPLNGGSTFNQKFKGRATLTVNTSSRTAYMELRSLTSEDSAAYYCARGGTRFAYWGQGTLVTVSA
VL: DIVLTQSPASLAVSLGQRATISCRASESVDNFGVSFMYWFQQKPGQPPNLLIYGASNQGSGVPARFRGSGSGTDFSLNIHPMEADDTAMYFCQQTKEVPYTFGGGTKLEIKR
